The values that follow come from patent US20250092158A1.

As usually defined, the Ki is a dissociation constant, usually derived from enzyme kinetics or from competition with a known ligand. Lower therefore signals a stronger hold on the target.

In this assay the target is human Quiescin Sulfhydryl Oxidase 1 (QSOX1) (human) (UniProt O00391). The assay can be described thus: oxygen electrode assay of QSOX1 (25 nM) on DTT (200 uM), antibody varied, Morrison tight-binding fit.
Chain of UniProt O00391 (O00391 33-546): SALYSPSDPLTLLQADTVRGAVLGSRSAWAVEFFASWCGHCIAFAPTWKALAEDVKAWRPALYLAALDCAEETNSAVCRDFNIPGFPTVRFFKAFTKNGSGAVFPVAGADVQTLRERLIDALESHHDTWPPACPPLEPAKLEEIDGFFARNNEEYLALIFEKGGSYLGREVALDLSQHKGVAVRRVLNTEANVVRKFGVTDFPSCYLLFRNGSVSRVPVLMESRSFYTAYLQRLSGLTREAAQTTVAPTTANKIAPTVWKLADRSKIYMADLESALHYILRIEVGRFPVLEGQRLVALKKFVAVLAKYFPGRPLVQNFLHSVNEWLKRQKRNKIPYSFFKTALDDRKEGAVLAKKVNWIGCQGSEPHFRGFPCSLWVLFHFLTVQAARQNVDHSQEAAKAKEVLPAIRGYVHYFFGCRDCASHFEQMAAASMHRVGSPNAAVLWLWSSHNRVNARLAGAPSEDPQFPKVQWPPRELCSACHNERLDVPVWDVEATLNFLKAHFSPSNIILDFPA

B1: humanized anti-QSOX1 antibody H3K4 (antibody, human IgG1, kappa, V domains shown)
VH: QVQLVESGGGLVQPGGSLRLSCSVSGFSLTGYGVNWVRQAPGKGLEWLGMIWGDGRTDYADSVKGRFTISRDNSKNTLYLQMSSLRAEDTAVYYCASDYYGSGSFAYWGQGTLVTVSS
VL: DIVMTQSPDSLAVSLGERATINCKASQDVSTAVAWYQQKPGQPPKLLIHSASYRYTGVPDRFSGSGSGTDFTLTISSLQAEDVAVYYCQQHYSIPLTFGQGTRLEIKR
The molecule B1 yielded a Ki of less than 1 nM.

B2: humanized anti-QSOX1 antibody H2bK4 (antibody, human IgG1, kappa, V domains shown)
VH: QITLKESGPTLVKPTQTLTLTCTVSGFSLTGYGVNWIRQPPGKALEWLGMIWGDGRTDYSPSLKSRLTITKDTSKNQVVLTMTNMDPVDTATYYCASDYYGSGSFAYWGRGTLVTVSS
VL: B1 VL
For the molecule B2, the Ki is less than 1 nM.

B3: humanized anti-QSOX1 antibody H3newK2 (antibody, human IgG1, kappa, V domains shown)
VH: QVQLVESGGGLVQPGRSLRLSCTVSGFSLTGYGVNWFRQAPGKGLEWLGMIWGDGRTDYTASVKGRFTISRDGSKSIAYLQMNSLKTEDTAVYYCASDYYGSGSFAYWGQGTLVTVSS
VL: DIVMTQTPLSLSVTPGQPASISCKASQDVSTAVAWYLQKPGQPPQLLIHSASYRYTGVPDRFSGSGSGTDFTLKISRVEAEDVGVYYCQQHYSIPLTFGPGTKVDIKR
With B3, the Ki was less than 1 nM.

B4: humanized anti-QSOX1 antibody H3newK4 (antibody, human IgG1, kappa, V domains shown)
VH: B3 VH
VL: B1 VL
Take B4: the Ki is less than 1 nM.
